The nature of the series: total protein half-life in vivo (active degradation + dilution); higher = more stable protein.
Setting [1] is: E. coli NCM3722 delta-clpP delta-lon delta-hslV, growth: N-lim chemostat, doubling time 6 h.
The mark [2] stands for this setting: E. coli NCM3722 delta-clpP, growth: N-lim chemostat, doubling time 6 h.
Where [3] appears, read: E. coli NCM3722 delta-hslV, growth: N-lim chemostat, doubling time 6 h.
Setting [4] is: E. coli NCM3722 delta-lon, growth: N-lim chemostat, doubling time 6 h.
Where [5] appears, read: E. coli NCM3722 delta-smpB, growth: N-lim chemostat, doubling time 6 h.
Setting [6] is: wild type E. coli NCM3722, growth: C-lim chemostat, doubling time 6 h.
Setting [7] is: wild type E. coli NCM3722, growth: N-lim chemostat, doubling time 6 h.
Where [8] appears, read: wild type E. coli NCM3722, growth: N-lim chemostat, doubling time 12 h.
[9] abbreviates: wild type E. coli NCM3722, growth: P-lim chemostat, doubling time 6 h.
The mark [10] stands for this setting: wild type E. coli NCM3722, growth: P-lim chemostat, doubling time 12 h.
Where [11] appears, read: wild type E. coli NCM3722, growth: C-lim chemostat, doubling time 3 h.
Setting [12] is: wild type E. coli NCM3722, growth: C-lim chemostat, doubling time 12 h.

± gives the standard deviation of the averaged measurements.

From the supplement of paper PMC11246515 come the findings set out here.

“MIHSSVKRWGNSPAVRIPATLMQALNLNIDDEVKIDLVDGKLIIEPVRKEPVFTLAELVNDITPENLHENIDWGEPKDKEVW [P0AE72]”: the “total protein half-life in vivo” value is, setting by setting: under setting [1], 5.19 ± 0.15 h; under setting [2], 2.31 ± 0.28 h; under setting [3], 2.17 h; under setting [4], 3.17 h; under setting [5], 2.35 h; under setting [6], 5.66 h. In addition, the “total protein half-life in vivo” value came out at 1.94 h under setting [7], 5.05 ± 2.4 h under setting [8], 1.3 h under setting [9] and 4.48 h under setting [10].
Take “MTIHKKGQAHWEGDIKRGKGTVSTESGVLNQQPYGFNTRFEGEKGTNPEELIGAAHAACFSMALSLMLGEAGFTPTSIDTTADVSLDKVDAGFAITKIALKSEVAVPGIDASTFDGIIQKAKAGCPVSQVLKAEITLDYQLKS [P0C0L2]”: the “total protein half-life in vivo” value was 5.71 ± 0.14 h under setting [1]; 5.45 ± 0.62 h under setting [2]; 5.59 ± 0.41 h under setting [3]; 5.84 ± 0.083 h under setting [4]; 4.963 ± 0.042 h under setting [5]; 3.08 ± 0.62 h under setting [11]. Also, the “total protein half-life in vivo” value under setting [6] turned out to be 6.63 ± 0.81 h; the “total protein half-life in vivo” value under setting [12] is 12.1 ± 0.22 h; the “total protein half-life in vivo” value under setting [7] was determined as 5.3 ± 0.28 h; the “total protein half-life in vivo” value under setting [8] turned out to be 9.59 ± 0.6 h; the “total protein half-life in vivo” value under setting [9] came out at 5.84 ± 0.082 h; the “total protein half-life in vivo” value under setting [10] is 12.6 ± 0.93 h.
As for “MSHLDNGFRSLTLQRFPATDDVNPLQAWEAADEYLLQQLDDTEIRGPVLILNDAFGALSCALAEHKPYSIGDSYISELATRENLRLNGIDESSVKFLDSTADYPQQPGVVLIKVPKTLALLEQQLRALRKVVTSDTRIIAGAKARDIHTSTLELFEKVLGPTTTTLAWKKARLINCTFNEPQLADAPQTVSWKLEGTDWTIHNHANVFSRTGLDIGARFFMQHLPENLEGEIVDLGCGNGVIGLTLLDKNPQAKVVFVDESPMAVASSRLNVETNMPEALDRCEFMINNALSGVEPFRFNAVLCNPPFHQQHALTDNVAWEMFHHARRCLKINGELYIVANRHLDYFHKLKKIFGNCTTIATNNKFVVLKAVKLGRRR”, the “total protein half-life in vivo” value reads like this: under setting [1], 5.55 ± 0.53 h; under setting [2], 5.19 ± 0.25 h; under setting [3], 5.29 ± 0.23 h; under setting [4], 5.64 ± 0.14 h; under setting [5], 4.7 ± 0.66 h; under setting [11], 3.05 ± 0.51 h. For the same sequence, the “total protein half-life in vivo” value under setting [6] amounted to 5.87 ± 0.088 h; the “total protein half-life in vivo” value under setting [12] turned out to be 11.9 ± 1.5 h; the “total protein half-life in vivo” value under setting [7] was 5.175 ± 0.041 h; the “total protein half-life in vivo” value under setting [8] is 8.16 ± 1.4 h; the “total protein half-life in vivo” value under setting [9] worked out at 5.7 h.
As for “MAKQDYYEILGVSKTAEEREIRKAYKRLAMKYHPDRNQGDKEAEAKFKEIKEAYEVLTDSQKRAAYDQYGHAAFEQGGMGGGGFGGGADFSDIFGDVFGDIFGGGRGRQRAARGADLRYNMELTLEEAVRGVTKEIRIPTLEECDVCHGSGAKPGTQPQTCPTCHGSGQVQMRQGFFAVQQTCPHCQGRGTLIKDPCNKCHGHGRVERSKTLSVKIPAGVDTGDRIRLAGEGEAGEHGAPAGDLYVQVQVKQHPIFEREGNNLYCEVPINFAMAALGGEIEVPTLDGRVKLKVPGETQTGKLFRMRGKGVKSVRGGAQGDLLCRVVVETPVGLNERQKQLLQELQESFGGPTGEHNSPRSKSFFDGVKKFFDDLTR”, the “total protein half-life in vivo” value under setting [2] was 6.07 ± 0.65 h; the “total protein half-life in vivo” value under setting [3] amounted to 4.941 ± 0.031 h; the “total protein half-life in vivo” value under setting [4] was 6.155 ± 0.042 h; the “total protein half-life in vivo” value under setting [5] is 4.51 ± 0.36 h; the “total protein half-life in vivo” value under setting [11] is 2.67 ± 0.034 h; the “total protein half-life in vivo” value under setting [6] was determined as 4.97 ± 0.22 h. The “total protein half-life in vivo” value is, setting by setting: under setting [12], 9.44 ± 0.52 h; under setting [7], 4.9 ± 0.55 h; under setting [8], 8.73 ± 0.55 h; under setting [9], 5.193 ± 0.045 h; under setting [10], 11.41 ± 0.11 h.
Consider “MRYIKSITQQKLSFLLAIYIGLFMNGAVFYRRFGSYAHDFTVWKGISAVVELAATVLVTFFLLRLLSLFGRRSWRILASLVVLFSAGASYYMTFLNVVIGYGIIASVMTTDIDLSKEVVGLNFILWLIAVSALPLILIWNNRCRYTLLRQLRTPGQRIRSLAVVVLAGIMVWAPIRLLDIQQKKVERATGVDLPSYGGVVANSYLPSNWLSALGLYAWARVDESSDNNSLLNPAKKFTYQAPQNVDDTYVVFIIGETTRWDHMGIFGYERNTTPKLAQEKNLAAFRGYSCDTATKLSLRCMFVRQGGAEDNPQRTLKEQNIFAVLKQLGFSSDLYAMQSEMWFYSNTMADNIAYREQIGAEPRNRGKPVDDMLLVDEMQQSLGRNPDGKHLIILHTKGSHFNYTQRYPRSFAQWKPECIGVDSGCTKAQMINSYDNSVTYVDHFISSVIDQVRDKKAIVFYAADHGESINEREHLHGTPRELAPPEQFRVPMMVWMSDKYLENPANAQAFAQLKKEADMKVPRRHVELYDTIMGCLGYTSPDGGINENNNWCHIPQAKEAAAN”, for which the “total protein half-life in vivo” value by setting is: under setting [1], 4 ± 0.3 h; under setting [3], 4.35 ± 1.7 h; under setting [4], 6.45 ± 0.89 h; under setting [5], 3.61 ± 0.3 h; under setting [11], 2.87 ± 0.19 h; under setting [6], 4.84 ± 0.023 h. In addition, the “total protein half-life in vivo” value reads like this: under setting [12], 8.037 ± 0.012 h; under setting [7], 5.66 ± 0.37 h; under setting [8], 8.75 ± 0.59 h; under setting [9], 4.14 ± 1.1 h; under setting [10], 6.76 ± 1.3 h.
Regarding “MKGRLLDAVPLSSLTGVGAALSNKLAKINLHTVQDLLLHLPLRYEDRTHLYPIGELLPGVYATVEGEVLNCNISFGGRRMMTCQISDGSGILTMRFFNFSAAMKNSLAAGRRVLAYGEAKRGKYGAEMIHPEYRVQGDLSTPELQETLTPVYPTTEGVKQATLRKLTDQALDLLDTCAIEELLPPELSQGMMTLPEALRTLHRPPPTLQLSDLETGQHPAQRRLILEELLAHNLSMLALRAGAQRFHAQPLSANDTLKNKLLAALPFKPTGAQARVVAEIERDMALDVPMMRLVQGDVGSGKTLVAALAALRAIAHGKQVALMAPTELLAEQHANNFRNWFAPLGIEVGWLAGKQKGKARLAQQEAIASGQVQMIVGTHAIFQEQVQFNGLALVIIDEQHRFGVHQRLALWEKGQQQGFHPHQLIMTATPIPRTLAMTAYADLDTSVIDELPPGRTPVTTVAIPDTRRTDIIDRVHHACITEGRQAYWVCTLIEESELLEAQAAEATWEELKLALPELNVGLVHGRMKPAEKQAVMASFKQGELHLLVATTVIEVGVDVPNASLMIIENPERLGLAQLHQLRGRVGRGAVASHCVLLYKTPLSKTAQIRLQVLRDSNDGFVIAQKDLEIRGPGELLGTRQTGNAEFKVADLLRDQAMIPEVQRLARHIHERYPQQAKALIERWMPETERYSNA”, the “total protein half-life in vivo” value under setting [1] was 5.83 ± 0.22 h; the “total protein half-life in vivo” value under setting [2] is 5.05 ± 0.14 h; the “total protein half-life in vivo” value under setting [3] turned out to be 5.74 ± 0.61 h; the “total protein half-life in vivo” value under setting [4] turned out to be 5.32 ± 0.16 h; the “total protein half-life in vivo” value under setting [5] is 5.01 ± 0.36 h; the “total protein half-life in vivo” value under setting [6] worked out at 6.17 ± 0.47 h. For the same sequence, the “total protein half-life in vivo” value is, setting by setting: under setting [12], 10.5 ± 0.46 h; under setting [7], 4.91 ± 0.11 h; under setting [8], 8.73 ± 0.86 h; under setting [9], 6.25 ± 0.072 h; under setting [10], 11.3 ± 0.53 h.
Take “MRKIVAMAVICLTAASGLTSAYAAQLADDEAGLRIRLKNELRRADKPSAGAGRDIYAWVQGGLLDFNSGYYSNIIGVEGGAYYVYKLGARADMSTRWYLDGDKSFGFALGAVKIKPSENSLLKLGRFGTDYSYGSLPYRIPLMAGSSQRTLPTVSEGALGYWALTPNIDLWGMWRSRVFLWTDSTTGIRDEGVYNSQTGKYDKHRARSFLAASWHDDTSRYSLGASVQKDVSNQIQSILEKSIPLDPNYTLKGELLGFYAQLEGLSRNTSQPNETALVSGQLTWNAPWGSVFGSGGYLRHAMNGAVVDTDIGYPFSLSLDRNREGMQSWQLGVNYRLTPQFTLTFAPIVTRGYESSKRDVRIEGTGILGGMNYRVSEGPLQGMNFFLAADKGREKRDGSTLGDRLNYWDVKMSIQYDFMLK”: the “total protein half-life in vivo” value came to 3.55 ± 0.51 h under setting [11], 7.84 h under setting [6] and 11.5 ± 2 h under setting [12].
